Tested on: Escherichia coli TOP10
Assay: shrunken log2 fold change of peptide-encoding DNA abundance (4.5 h post-induction vs induction); higher = less antimicrobial activity (less host growth inhibition)
Conditions: time post-induction: 4.5 h; library: site-saturation at positions 5, 18, 19, 20
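Also: peptides expressed intracellularly from a pBAD plasmid library in pooled LB shake-flask culture, induced with 0.3% L-arabinose, DNA abundance read by NGS, three biological replicates, DESeq2 with apeglm shrinkage.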

RRIRVRPPRLPRPRPRPHSVPRP and RRIRVRPPRLPRPRPRPHTCPRP are within 0.2 log units of each other in “shrunken log2 fold change” value: -0.177 for the first, -0.345 for the second.

Compared with RRIRVRPPRLPRPRPRPHTQPRP, RRIRVRPPRLPRPRPRPHVMPRP is lower in “shrunken log2 fold change” value: 0.00176 for the first, -0.526 for the second.

First: RRIRVRPPRLPRPRPRPHVNPRP
Second: RRIRVRPPRLPRPRPRPHVPPRP
The “shrunken log2 fold change” value of the first is lower: -0.554 for the first, -0.044 for the second.

RRIRVRPPRLPRPRPRPHWEPRP and RRIRVRPPRLPRPRPRPHWSPRP are within 0.2 log units of each other in “shrunken log2 fold change” value: -0.0118 for the first, -0.191 for the second.

First: RRIRVRPPRLPRPRPRPHYRPRP
Second: RRIRVRPPRLPRPRPRPIASPRP
The “shrunken log2 fold change” value of the first is lower: -0.0502 for the first, 0.171 for the second.

RRIRVRPPRLPRPRPRPICEPRP and RRIRVRPPRLPRPRPRPICPPRP are within 0.2 log units of each other in “shrunken log2 fold change” value: 0.058 for the first, -0.0804 for the second.

Going from RRIRVRPPRLPRPRPRPIDRPRP to RRIRVRPPRLPRPRPRPIFSPRP, the “shrunken log2 fold change” value falls from -0.0529 to -0.628.

Compared with RRIRVRPPRLPRPRPRPIGAPRP, RRIRVRPPRLPRPRPRPIGNPRP is lower in “shrunken log2 fold change” value: 0.255 for the first, -0.194 for the second.

RRIRVRPPRLPRPRPRPIGPPRP and RRIRVRPPRLPRPRPRPIHEPRP are within 0.2 log units of each other in “shrunken log2 fold change” value: -0.0936 for the first, 0.0255 for the second.

RRIRVRPPRLPRPRPRPIKKPRP and RRIRVRPPRLPRPRPRPIKQPRP are within 0.2 log units of each other in “shrunken log2 fold change” value: -0.015 for the first, 0.0119 for the second.

RRIRVRPPRLPRPRPRPIMKPRP and RRIRVRPPRLPRPRPRPIMYPRP are within 0.2 log units of each other in “shrunken log2 fold change” value: -0.473 for the first, -0.514 for the second.

Going from RRIRVRPPRLPRPRPRPINQPRP to RRIRVRPPRLPRPRPRPIPEPRP, the “shrunken log2 fold change” value rises from -0.749 to -0.0974.

First: RRIRVRPPRLPRPRPRPIQAPRP
Second: RRIRVRPPRLPRPRPRPISEPRP
The “shrunken log2 fold change” value of the first is higher: -0.0344 for the first, -0.282 for the second.

RRIRVRPPRLPRPRPRPITDPRP and RRIRVRPPRLPRPRPRPIWTPRP are within 0.2 log units of each other in “shrunken log2 fold change” value: -0.069 for the first, -0.0382 for the second.

Compared with RRIRVRPPRLPRPRPRPIYLPRP, RRIRVRPPRLPRPRPRPKAKPRP is higher in “shrunken log2 fold change” value: -0.543 for the first, 0.0989 for the second.

Compared with RRIRVRPPRLPRPRPRPKAPPRP, RRIRVRPPRLPRPRPRPKDAPRP is lower in “shrunken log2 fold change” value: 0.592 for the first, 0.0211 for the second.

RRIRVRPPRLPRPRPRPKEGPRP and RRIRVRPPRLPRPRPRPKEPPRP are within 0.2 log units of each other in “shrunken log2 fold change” value: 0.0282 for the first, 0.0639 for the second.

Compared with RRIRVRPPRLPRPRPRPKFHPRP, RRIRVRPPRLPRPRPRPKFMPRP is lower in “shrunken log2 fold change” value: 0.678 for the first, -0.0954 for the second.

First: RRIRVRPPRLPRPRPRPKFSPRP
Second: RRIRVRPPRLPRPRPRPKFYPRP
The “shrunken log2 fold change” value of the first is higher: 0.0178 for the first, -0.46 for the second.

RRIRVRPPRLPRPRPRPKGHPRP and RRIRVRPPRLPRPRPRPKGSPRP are within 0.2 log units of each other in “shrunken log2 fold change” value: -0.0413 for the first, 0.0616 for the second.

Compared with RRIRVRPPRLPRPRPRPKHHPRP, RRIRVRPPRLPRPRPRPKHLPRP is higher in “shrunken log2 fold change” value: -0.357 for the first, 0.0232 for the second.

First: RRIRVRPPRLPRPRPRPKHPPRP
Second: RRIRVRPPRLPRPRPRPKHSPRP
The “shrunken log2 fold change” value of the first is higher: 0.28 for the first, -0.189 for the second.

Going from RRIRVRPPRLPRPRPRPKIDPRP to RRIRVRPPRLPRPRPRPKINPRP, the “shrunken log2 fold change” value falls from 0.124 to -0.18.

RRIRVRPPRLPRPRPRPKKEPRP and RRIRVRPPRLPRPRPRPKKIPRP are within 0.2 log units of each other in “shrunken log2 fold change” value: 0.18 for the first, 0.0852 for the second.

First: RRIRVRPPRLPRPRPRPKNTPRP
Second: RRIRVRPPRLPRPRPRPKPIPRP
The “shrunken log2 fold change” value of the first is lower: -0.347 for the first, -0.0649 for the second.

First: RRIRVRPPRLPRPRPRPKQDPRP
Second: RRIRVRPPRLPRPRPRPKQRPRP
The “shrunken log2 fold change” value of the first is lower: -0.266 for the first, 0.157 for the second.

Going from RRIRVRPPRLPRPRPRPKRKPRP to RRIRVRPPRLPRPRPRPKTHPRP, the “shrunken log2 fold change” value falls from 0.376 to -0.0994.

RRIRVRPPRLPRPRPRPKTTPRP and RRIRVRPPRLPRPRPRPKWSPRP are within 0.2 log units of each other in “shrunken log2 fold change” value: -0.0198 for the first, 0.0979 for the second.

RRIRVRPPRLPRPRPRPKYRPRP and RRIRVRPPRLPRPRPRPLGQPRP are within 0.2 log units of each other in “shrunken log2 fold change” value: -0.0331 for the first, 0.131 for the second.

First: RRIRVRPPRLPRPRPRPLGTPRP
Second: RRIRVRPPRLPRPRPRPLHAPRP
The “shrunken log2 fold change” value of the first is lower: 0.188 for the first, 0.473 for the second.

First: RRIRVRPPRLPRPRPRPLHCPRP
Second: RRIRVRPPRLPRPRPRPLHRPRP
The “shrunken log2 fold change” value of the first is higher: 0.238 for the first, -0.0175 for the second.

RRIRVRPPRLPRPRPRPLHTPRP and RRIRVRPPRLPRPRPRPLIKPRP are within 0.2 log units of each other in “shrunken log2 fold change” value: -0.0261 for the first, -0.206 for the second.

Going from RRIRVRPPRLPRPRPRPLIMPRP to RRIRVRPPRLPRPRPRPLKAPRP, the “shrunken log2 fold change” value rises from -0.502 to 0.157.

Going from RRIRVRPPRLPRPRPRPLKLPRP to RRIRVRPPRLPRPRPRPLKPPRP, the “shrunken log2 fold change” value rises from -0.337 to -0.0393.

RRIRVRPPRLPRPRPRPLLGPRP and RRIRVRPPRLPRPRPRPLMAPRP are within 0.2 log units of each other in “shrunken log2 fold change” value: -0.131 for the first, 0.049 for the second.

RRIRVRPPRLPRPRPRPLPMPRP and RRIRVRPPRLPRPRPRPLQKPRP are within 0.2 log units of each other in “shrunken log2 fold change” value: 0.0885 for the first, 0.0697 for the second.

First: RRIRVRPPRLPRPRPRPLRFPRP
Second: RRIRVRPPRLPRPRPRPLSHPRP
The “shrunken log2 fold change” value of the first is higher: 0.571 for the first, -0.32 for the second.

First: RRIRVRPPRLPRPRPRPLTPPRP
Second: RRIRVRPPRLPRPRPRPLVTPRP
The “shrunken log2 fold change” value of the first is higher: 0.758 for the first, -0.348 for the second.

First: RRIRVRPPRLPRPRPRPLYTPRP
Second: RRIRVRPPRLPRPRPRPMAKPRP
The “shrunken log2 fold change” value of the first is lower: -0.345 for the first, 0.0605 for the second.

RRIRVRPPRLPRPRPRPMCFPRP and RRIRVRPPRLPRPRPRPMEFPRP are within 0.2 log units of each other in “shrunken log2 fold change” value: -0.178 for the first, -0.03 for the second.

First: RRIRVRPPRLPRPRPRPMESPRP
Second: RRIRVRPPRLPRPRPRPMFMPRP
The “shrunken log2 fold change” value of the first is higher: 0.156 for the first, -0.562 for the second.

RRIRVRPPRLPRPRPRPMHLPRP and RRIRVRPPRLPRPRPRPMHMPRP are within 0.2 log units of each other in “shrunken log2 fold change” value: -0.167 for the first, -0.164 for the second.

RRIRVRPPRLPRPRPRPMIDPRP and RRIRVRPPRLPRPRPRPMIGPRP are within 0.2 log units of each other in “shrunken log2 fold change” value: -0.283 for the first, -0.112 for the second.

RRIRVRPPRLPRPRPRPMLTPRP and RRIRVRPPRLPRPRPRPMMYPRP are within 0.2 log units of each other in “shrunken log2 fold change” value: -0.066 for the first, 0.00519 for the second.

First: RRIRVRPPRLPRPRPRPMPEPRP
Second: RRIRVRPPRLPRPRPRPMPGPRP
The “shrunken log2 fold change” value of the first is lower: -0.192 for the first, 0.18 for the second.

First: RRIRVRPPRLPRPRPRPMRKPRP
Second: RRIRVRPPRLPRPRPRPMTDPRP
The “shrunken log2 fold change” value of the first is higher: 4.33 for the first, 0.168 for the second.

RRIRVRPPRLPRPRPRPMVMPRP and RRIRVRPPRLPRPRPRPMVRPRP are within 0.2 log units of each other in “shrunken log2 fold change” value: -0.0371 for the first, 0.00709 for the second.

First: RRIRVRPPRLPRPRPRPMVSPRP
Second: RRIRVRPPRLPRPRPRPMWMPRP
The “shrunken log2 fold change” value of the first is lower: -0.188 for the first, 0.109 for the second.

RRIRVRPPRLPRPRPRPMWPPRP and RRIRVRPPRLPRPRPRPMWQPRP are within 0.2 log units of each other in “shrunken log2 fold change” value: 0.0245 for the first, -0.0393 for the second.

RRIRVRPPRLPRPRPRPNCRPRP and RRIRVRPPRLPRPRPRPNCTPRP are within 0.2 log units of each other in “shrunken log2 fold change” value: -0.0746 for the first, -0.0535 for the second.

Going from RRIRVRPPRLPRPRPRPNDEPRP to RRIRVRPPRLPRPRPRPNECPRP, the “shrunken log2 fold change” value rises from -0.352 to -0.0835.

RRIRVRPPRLPRPRPRPNEGPRP and RRIRVRPPRLPRPRPRPNEVPRP are within 0.2 log units of each other in “shrunken log2 fold change” value: -0.00311 for the first, 0.00656 for the second.

Going from RRIRVRPPRLPRPRPRPNFEPRP to RRIRVRPPRLPRPRPRPNFSPRP, the “shrunken log2 fold change” value falls from 0.178 to -0.153.

Compared with RRIRVRPPRLPRPRPRPNGHPRP, RRIRVRPPRLPRPRPRPNGMPRP is lower in “shrunken log2 fold change” value: -0.0787 for the first, -0.32 for the second.

In the case of RRIRVRPPRLPRPRPRPNHDPRP, the “shrunken log2 fold change” value was -0.369.

From the supplement of paper PMC9112550, “Optimization of the antimicrobial peptide Bac7 by deep mutational scanning” (BMC Biology, 2022)
